Measured values reported in patent US20110086806A1 (published 2011).

T1: recombinant human IL-23R/Fc chimera (R&D Systems) (human, UniProt Q5VWK5 24-355)
T1 construct: Bought; also called rhIL23RFc
T1 sequence (looked up): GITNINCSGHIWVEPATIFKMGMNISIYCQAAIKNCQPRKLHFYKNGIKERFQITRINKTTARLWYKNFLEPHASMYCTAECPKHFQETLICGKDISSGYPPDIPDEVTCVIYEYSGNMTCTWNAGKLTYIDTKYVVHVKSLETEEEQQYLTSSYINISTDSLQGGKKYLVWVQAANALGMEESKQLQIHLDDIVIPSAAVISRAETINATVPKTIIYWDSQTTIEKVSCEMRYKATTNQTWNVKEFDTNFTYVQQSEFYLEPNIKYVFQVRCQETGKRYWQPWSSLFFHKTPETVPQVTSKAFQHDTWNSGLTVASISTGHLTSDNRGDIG


What was measured:
[1] = molecular target: T1, recombinant human IL-23R/Fc chimera …; assay: SPR
Method: A Biacore 3000 biosensor (GE Healthcare) was used to evaluate the interaction of human IL-23R and receptor binders. Immobilization of an anti-human IgG Fc antibody (GE Healthcare) to the CM5 chip (GE Healthcare) was performed using standard amine coupling chemistry, and this modified surface was used to capture a recombinant human IL-23R/Fc fusion protein (R&D Systems). A low-density receptor surface, less than 200 RU, was used for all of the analyses. ATRIMER™ polypeptide complex dilutions (1-500 nM) were injected over the IL-23R surface at 30 μl/min and kinetic constants were derived from the sensorgram data using the Biaevaluation software (version 3.1, GE Healthcare). Data collection was 3 minutes for the association and 5 minutes for dissociation. The anti-human IgG surface was regenerated with a 30s pulse of 3M magnesium chloride. All sensorgrams were double-referenced against an activated and blocked flow-cell as well as buffer injections.

[2] = molecular target: T1, recombinant human IL-23R/Fc chimera …; assay: competition ELISA vs IL-23
Method: Assays were performed generally as follows. Individual wells in Immulon HB2 plates were incubated overnight at 4° C. with 100 μL PBS containing 100 ng of an anti-human IgG Fc (R&D MAB 110 clone 97924). Plates were washed five times with PBS/0.05% Tween 20, and wells were incubated for 1.5 h at RT with 100 μL each of PBS containing 50 ng of recombinant human IL-23R/Fc. […] Competitor was included at a final concentration of 1 μg/mL. After incubation, plates were washed as described and wells were incubated for 40 min at RT with 100 μL each of PBS containing a 1:5000 dilution of streptavidin-HRP conjugate (Pierce catalog no. 21130). After washing, wells were incubated with 100 μL each of TMB (BioFX Lab catalog no. TMBH-1000-0) for up to 30 min at RT. Reactions were stopped with an equal volume of 0.2 M sulfuric acid.
A number of ATRIMER™ polypeptide complexes were tested in competition ELISA more extensively to determine IC50 values.

[3] = molecular target: T1, recombinant human IL-23R/Fc chimera …; assay: competition ELISA vs IL-23; remark: listed apart in the source

Ka [1] | Kd [1] | koff [1] | kon [1] | IC50 [2] | Ratio IC50 to 056-53.H4E IC50 [3] | Binder
9.78e+08 M⁻¹ | 1.02 nM | 0.000314 s⁻¹ | 307000 M⁻¹ s⁻¹ | 1.65 nM | – | 056-41.B5C ATRIMER complex (designed binder, non-covalent homotrimer of the one chain given, not shown: Also the single Ser the vector leaves after the ompA signal) EPPTQKPKKIVNAKKDVVNTKMFEELKSRLDTLAQEVALLKEQQALQTVCLKGTKVHMKCFLAFTQTKTFHEASEDCISRGGTLSTPQTGSENDALYEYLRQSVGNEAEIWLGLNGSALTNTWVDMTGARIAYKNWETEITAQPDGGFGYFGENCAVLSGAANGKWFDKRCRDQLPYICQFGIV
1.31e+09 M⁻¹ | 0.764 nM | 0.00031 s⁻¹ | 405000 M⁻¹ s⁻¹ | – | 1.2 | 105-20-1B3 ATRIMER complex (designed binder) EPPTQKPKKIVNAKKDVVNTKMFEELKSRLDTLAQEVALLKEQQALQTVCLKGTKVHMKCFLAFTQTKTFHEASEDCISRGGTLSTPQTGSENDALYEYLRQSVGNEAEIWLGLNGSALTNTWVDMTGARIAYKNWETEITAQPDGGFGYFGENCAVLSGAANGKWFDKRCRDQLPYICQFGIV
1.32e+09 M⁻¹ | 0.759 nM | 0.000312 s⁻¹ | 412000 M⁻¹ s⁻¹ | – | 1.2 | 105-20-2A3 ATRIMER complex (designed binder, Homotrimer of three identical chains (ATRIMER complex); one chain is given., not shown: C-terminal tag: His/Myc (pANA4) or HA-StrepII (pANA10)) EPPTQKPKKIVNAKKDVVNTKMFEELKSRLDTLAQEVALLKEQQALQTVCLKGTKVHMKCFLAFTQTKTFHEASEDCISRGGTLSTPQTGSENDALYEYLRQSVGNEAEIWLGLNGSPITNTWVDMTGARIAYKNWETEITAQPDGGFGYFGENCAVLSGAANGKWFDKRCRDQLPYICQFGIV
7.92e+08 M⁻¹ | 1.26 nM | 0.000376 s⁻¹ | 298000 M⁻¹ s⁻¹ | 1.45 nM | – | 056-45.F7F ATRIMER complex (designed binder, Homotrimer of this chain (ATRIMER complex)., not shown: A possible extra N-terminal Ser from the ompA junction is left out) EPPTQKPKKIVNAKKDVVNTKMFEELKSRLDTLAQEVALLKEQQALQTVCLKGTKVHMKCFLAFTQTKTFHEASEDCISRGGTLSTPQTGSENDALYEYLRQSVGNEAEIWLGLNGSATTDTWVDMTGARIAYKNWETEITAQPDGGFGYFGENCAVLSGAANGKWFDKRCRDQLPYICQFGIV
1.34e+09 M⁻¹ | 0.744 nM | 0.000372 s⁻¹ | 500000 M⁻¹ s⁻¹ | – | 2.1 | 105-20-1H7 ATRIMER complex (designed binder) EPPTQKPKKIVNAKKDVVNTKMFEELKSRLDTLAQEVALLKEQQALQTVCLKGTKVHMKCFLAFTQTKTFHEASEDCISRGGTLSTPQTGSENDALYEYLRQSVGNEAEIWLGLNGSAGTNTWVDMTGARIAYKNWETEITAQPDGGFGYFGENCAVLSGAANGKWFDKRCRDQLPYICQFGIV
7.58e+08 M⁻¹ | 1.32 nM | 0.000397 s⁻¹ | 302000 M⁻¹ s⁻¹ | – | 1.8 | 105-08-2G10 ATRIMER complex (designed binder) EPPTQKPKKIVNAKKDVVNTKMFEELKSRLDTLAQEVALLKEQQALQTVCLKGTKVHMKCFLAFTQTKTFHEASEDCISRGGTLSTPQTGSENDALYEYLRQSVGNEAEIWLGLNGSPLTDTWVDMTGARIAYKNWETEITAQPDGGFGYFGENCAVLSGAANGKWFDKRCRDQLPYICQFGIV
1.35e+08 M⁻¹ | 7.42 nM | 0.000805 s⁻¹ | 109000 M⁻¹ s⁻¹ | 1.4 nM | – | 001-69.4G8 ATRIMER complex (designed binder, not shown: C-terminal tag: His/Myc (pANA4) or HA-StrepII (pANA10)) EPPTQKPKKIVNAKKDVVNTKMFEELKSRLDTLAQEVALLKEQQALQTVCLKGTKVHMKCFLAFTQTKTFHEASEDCISRGGTLSTPQTGSENDALYEYLRQSVGNEAEIWLGLNGSRRSGVWVDMTGARIAYKNWETEITAQPDGGFGVFGENCAVLSGAANGKWFDKRCRDQLPYICQFGIV
5.41e+08 M⁻¹ | 1.85 nM | 0.000471 s⁻¹ | 254000 M⁻¹ s⁻¹ | – | 2.8 | 105-20-2F12 ATRIMER complex (designed binder, ATRIMER complex: homotrimer of three copies of this chain, joined by the tetranectin coiled coil, not shown: C-terminal tag: Myc/His (pANA4) or HA-StrepII (pANA10)) EPPTQKPKKIVNAKKDVVNTKMFEELKSRLDTLAQEVALLKEQQALQTVCLKGTKVHMKCFLAFTQTKTFHEASEDCISRGGTLSTPQTGSENDALYEYLRQSVGNEAEIWLGLNGSKLTDTWVDMTGARIAYKNWETEITAQPDGGFGYFGENCAVLSGAANGKWFDKRCRDQLPYICQFGIV
1.52e+09 M⁻¹ | 0.658 nM | 0.000262 s⁻¹ | 398000 M⁻¹ s⁻¹ | – | 1 | 105-20-2G12 ATRIMER complex (designed binder) EPPTQKPKKIVNAKKDVVNTKMFEELKSRLDTLAQEVALLKEQQALQTVCLKGTKVHMKCFLAFTQTKTFHEASEDCISRGGTLSTPQTGSENDALYEYLRQSVGNEAEIWLGLNGSPRTNTWVDMTGARIAYKNWETEITAQPDGGFGYFGENCAVLSGAANGKWFDKRCRDQLPYICQFGIV
5.7e+08 M⁻¹ | 1.75 nM | 0.000373 s⁻¹ | 213000 M⁻¹ s⁻¹ | 1.8 nM | – | 056-40.A3C ATRIMER complex (designed binder, Homotrimer of this chain (ATRIMER complex)., not shown: A possible extra N-terminal Ser from the ompA junction is left out) EPPTQKPKKIVNAKKDVVNTKMFEELKSRLDTLAQEVALLKEQQALQTVCLKGTKVHMKCFLAFTQTKTFHEASEDCISRGGTLSTPQTGSENDALYEYLRQSVGNEAEIWLGLNGSATTATWVDMTGARIAYKNWETEITAQPDGGFGYFGENCAVLSGAANGKWFDKRCRDQLPYICQFGIV
6.99e+08 M⁻¹ | 1.43 nM | 0.000358 s⁻¹ | 251000 M⁻¹ s⁻¹ | – | 2.5 | 105-08-2G7 ATRIMER complex (designed binder) EPPTQKPKKIVNAKKDVVNTKMFEELKSRLDTLAQEVALLKEQQALQTVCLKGTKVHMKCFLAFTQTKTFHEASEDCISRGGTLSTPQTGSENDALYEYLRQSVGNEAEIWLGLNGSPKTGTWVDMTGARIAYKNWETEITAQPDGGFGYFGENCAVLSGAANGKWFDKRCRDQLPYICQFGIV
1.53e+09 M⁻¹ | 0.653 nM | 0.000359 s⁻¹ | 550000 M⁻¹ s⁻¹ | – | 2.4 | 105-08-2F6 ATRIMER complex (designed binder) EPPTQKPKKIVNAKKDVVNTKMFEELKSRLDTLAQEVALLKEQQALQTVCLKGTKVHMKCFLAFTQTKTFHEASEDCISRGGTLSTPQTGSENDALYEYLRQSVGNEAEIWLGLNGSAYTNTWVDMTGARIAYKNWETEITAQPDGGFGYFGENCAVLSGAANGKWFDKRCRDQLPYICQFGIV
1.17e+09 M⁻¹ | 0.857 nM | 0.00032 s⁻¹ | 374000 M⁻¹ s⁻¹ | – | 1.8 | 105-20-1H1 ATRIMER complex (designed binder) EPPTQKPKKIVNAKKDVVNTKMFEELKSRLDTLAQEVALLKEQQALQTVCLKGTKVHMKCFLAFTQTKTFHEASEDCISRGGTLSTPQTGSENDALYEYLRQSVGNEAEIWLGLNGSPLTNTWVDMTGARIAYKNWETEITAQPDGGWGYFGENCAVLSGAANGKWFDKRCRDQLPYICQFGIV
5.21e+08 M⁻¹ | 1.92 nM | 0.00033 s⁻¹ | 172000 M⁻¹ s⁻¹ | 2.6 nM | – | 001-87.A9E ATRIMER complex (designed binder, Homotrimer of this chain (ATRIMER complex)., not shown: A possible extra N-terminal Ser from the ompA junction is left out) EPPTQKPKKIVNAKKDVVNTKMFEELKSRLDTLAQEVALLKEQQALQTVCLKGTKVHMKCFLAFTQTKTFHEASEDCISRGGTLSTPQTGSENDALYEYLRQSVGNEAEIWLGLNGSALTNTWVDMTGARIAYKNWETEITAQPDGGLGYWGENCAVLSGAANGKWFDKRCRDQLPYICQFGIV
1.63e+09 M⁻¹ | 0.612 nM | 0.000371 s⁻¹ | 606000 M⁻¹ s⁻¹ | – | 0.9 | 105-08-2C10 ATRIMER complex (designed binder) EPPTQKPKKIVNAKKDVVNTKMFEELKSRLDTLAQEVALLKEQQALQTVCLKGTKVHMKCFLAFTQTKTFHEASEDCISRGGTLSTPQTGSENDALYEYLRQSVGNEAEIWLGLNGSLLTDTWVDMTGARIAYKNWETEITAQPDGGFGVFGENCAVLSGAANGKWFDKRCRDQLPYICQFGIV
1.55e+08 M⁻¹ | 6.46 nM | 0.000327 s⁻¹ | 50500 M⁻¹ s⁻¹ | – | 11.3 | 101-80-5H3 ATRIMER complex (designed binder) EPPTQKPKKIVNAKKDVVNTKMFEELKSRLDTLAQEVALLKEQQALQTVCLKGTKVHMKCFLAFTQTKTFHEASEDCISRGGTLSTPQTGSENDALYEYLRQSVGNEAEIWLGLNGSALTNTWVDMTGARIAYKNWEPPAPYHPMAAGVFGENCAVLSGAANGKWFDKRCRDQLPYICQFGIV
